In US20220402985A1:
Changes are numbered by the printed parent chain. Names and notes keep the numbering of the source. One block for each molecule: values may come before it.

Experiments:
[1] = target: ErbB3 on rat Schwann cells (rat) (UniProt Q62799); assay: cell-based or functional assay
[2] = target: ErbB4 on neonatal rat cardiomyocytes (rat) (UniProt Q62956); assay: cell-based or functional assay
ErbB4 on neonatal rat cardiomyocytes (rat), sequence (Q62956 26-1308): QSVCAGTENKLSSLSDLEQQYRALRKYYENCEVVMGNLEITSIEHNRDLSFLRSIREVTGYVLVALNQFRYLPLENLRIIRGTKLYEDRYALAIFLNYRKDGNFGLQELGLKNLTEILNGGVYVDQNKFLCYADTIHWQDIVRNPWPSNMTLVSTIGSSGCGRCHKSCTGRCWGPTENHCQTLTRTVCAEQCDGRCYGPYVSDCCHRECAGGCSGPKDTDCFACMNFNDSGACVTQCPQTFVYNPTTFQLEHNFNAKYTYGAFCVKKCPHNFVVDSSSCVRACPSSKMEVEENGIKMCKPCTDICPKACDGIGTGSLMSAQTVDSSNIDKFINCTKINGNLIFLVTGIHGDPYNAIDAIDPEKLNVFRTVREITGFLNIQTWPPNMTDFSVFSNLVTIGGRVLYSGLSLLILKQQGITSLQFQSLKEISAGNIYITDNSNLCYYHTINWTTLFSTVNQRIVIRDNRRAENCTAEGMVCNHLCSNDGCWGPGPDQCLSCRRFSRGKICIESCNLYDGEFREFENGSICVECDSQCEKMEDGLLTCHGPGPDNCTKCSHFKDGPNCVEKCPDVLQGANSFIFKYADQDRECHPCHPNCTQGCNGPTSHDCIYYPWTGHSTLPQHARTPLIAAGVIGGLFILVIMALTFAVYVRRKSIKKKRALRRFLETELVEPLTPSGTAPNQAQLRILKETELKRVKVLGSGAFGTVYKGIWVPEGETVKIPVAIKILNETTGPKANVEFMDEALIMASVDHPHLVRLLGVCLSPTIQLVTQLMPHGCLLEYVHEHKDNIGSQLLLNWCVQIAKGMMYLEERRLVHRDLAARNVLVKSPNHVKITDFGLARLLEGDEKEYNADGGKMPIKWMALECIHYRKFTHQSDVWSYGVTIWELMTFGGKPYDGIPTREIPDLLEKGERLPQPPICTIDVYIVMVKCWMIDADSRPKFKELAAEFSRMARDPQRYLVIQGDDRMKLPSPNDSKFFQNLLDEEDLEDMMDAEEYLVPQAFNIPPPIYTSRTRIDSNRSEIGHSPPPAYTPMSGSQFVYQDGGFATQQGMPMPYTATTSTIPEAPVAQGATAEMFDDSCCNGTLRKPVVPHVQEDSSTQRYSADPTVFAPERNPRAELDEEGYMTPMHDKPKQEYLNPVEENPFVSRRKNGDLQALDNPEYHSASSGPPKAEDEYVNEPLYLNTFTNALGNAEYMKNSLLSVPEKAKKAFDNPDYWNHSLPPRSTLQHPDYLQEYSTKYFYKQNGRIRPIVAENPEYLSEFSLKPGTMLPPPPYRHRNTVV

ErbB3 on rat Schwann cells (rat), sequence (Q62799 20-1339): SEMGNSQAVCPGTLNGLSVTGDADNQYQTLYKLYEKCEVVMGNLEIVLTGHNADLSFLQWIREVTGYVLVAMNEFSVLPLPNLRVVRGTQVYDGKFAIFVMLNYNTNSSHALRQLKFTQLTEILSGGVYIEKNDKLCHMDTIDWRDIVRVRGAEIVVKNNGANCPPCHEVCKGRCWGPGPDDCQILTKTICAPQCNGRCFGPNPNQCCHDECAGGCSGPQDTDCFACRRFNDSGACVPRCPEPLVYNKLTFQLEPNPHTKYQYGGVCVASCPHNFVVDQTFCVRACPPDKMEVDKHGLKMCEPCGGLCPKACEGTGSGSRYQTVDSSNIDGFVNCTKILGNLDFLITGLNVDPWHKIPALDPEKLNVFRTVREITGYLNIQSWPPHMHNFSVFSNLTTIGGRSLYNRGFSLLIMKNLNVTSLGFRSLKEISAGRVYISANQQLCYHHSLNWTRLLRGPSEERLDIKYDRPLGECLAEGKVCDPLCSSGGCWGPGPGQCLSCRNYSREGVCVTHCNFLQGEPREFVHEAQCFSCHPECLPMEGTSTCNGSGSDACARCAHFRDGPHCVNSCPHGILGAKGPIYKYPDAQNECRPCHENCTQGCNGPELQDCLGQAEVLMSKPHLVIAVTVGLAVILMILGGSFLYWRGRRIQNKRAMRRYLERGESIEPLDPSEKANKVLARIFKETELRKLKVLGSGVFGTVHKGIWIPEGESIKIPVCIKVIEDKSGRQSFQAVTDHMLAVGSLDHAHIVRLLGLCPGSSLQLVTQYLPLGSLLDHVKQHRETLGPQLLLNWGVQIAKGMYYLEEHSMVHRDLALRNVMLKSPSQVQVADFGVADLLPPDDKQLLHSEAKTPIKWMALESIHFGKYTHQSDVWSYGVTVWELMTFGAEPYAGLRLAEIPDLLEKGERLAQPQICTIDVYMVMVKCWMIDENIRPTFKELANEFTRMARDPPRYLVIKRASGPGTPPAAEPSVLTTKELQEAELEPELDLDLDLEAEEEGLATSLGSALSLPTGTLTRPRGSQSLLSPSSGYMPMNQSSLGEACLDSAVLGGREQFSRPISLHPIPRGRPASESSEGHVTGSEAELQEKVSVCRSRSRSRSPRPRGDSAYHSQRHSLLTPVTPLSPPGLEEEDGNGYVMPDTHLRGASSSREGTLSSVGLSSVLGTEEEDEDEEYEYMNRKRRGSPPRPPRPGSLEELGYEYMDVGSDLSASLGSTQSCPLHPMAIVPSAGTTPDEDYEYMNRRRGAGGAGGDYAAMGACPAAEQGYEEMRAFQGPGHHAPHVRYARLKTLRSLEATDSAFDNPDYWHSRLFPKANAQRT

Schwann cells (SC) (ErbB3) Avg EC50 [1]: 0.1 nM
Cardiomyocyte (CM) (ErbB4) Avg EC50 [2]: 0.34 nM
Selectivity SC/CM [2]: 0.3
Molecule: huNRG1(S177-F229)(wt)::3x(G4Q)::huFcSEFL2 (Pb) (Fc fusion)

Schwann cells (SC) (ErbB3) Avg EC50 [1]: 0.07 nM
Cardiomyocyte (CM) (ErbB4) Avg EC50 [2]: 2.6 nM
Selectivity SC/CM [2]: 0.03
Molecule: huNRG1(S177-S228)(wt)::3x(G4Q)::huFcSEFL2 (Pb) (from UniProt P0DOX5 300-449) (Fc fusion)

Schwann cells (SC) (ErbB3) Avg EC50 [1]: 0.0222 nM
CM % Agonism AVG [2]: 92.6%
Cardiomyocyte (CM) (ErbB4) Avg EC50 [2]: 0.084 nM
Selectivity SC/CM [2]: 0.264
Molecule: huNRG1(S177-S228)(wt)((G4E)2:G4)::huFcSEFL2 (Pb) (Fc fusion)

Schwann cells (SC) (ErbB3) Avg EC50 [1]: 0.07 nM
Cardiomyocyte (CM) (ErbB4) Avg EC50 [2]: 0.21 nM
Selectivity SC/CM [2]: 0.3
Molecule: huNRG1(S177-Q237)(wt)::3x(G4Q)::huFcSEFL2 (Pb) (from UniProt P0DOX5 223-449) (Fc fusion)

Schwann cells (SC) (ErbB3) Avg EC50 [1]: 0.14 nM
CM % Agonism AVG [2]: 91.4%
Cardiomyocyte (CM) (ErbB4) Avg EC50 [2]: 0.31 nM
Selectivity SC/CM [2]: 0.452
Molecule: huNRG1(S177-F229) huIgG1z SELF2 Fc (Fc fusion)

CM % Agonism AVG [2]: 91.9%
Cardiomyocyte (CM) (ErbB4) Avg EC50 [2]: 1.9 nM
Selectivity SC/CM [2]: > 10000
B7: :huNRG1(S177-F229)(NRGE1D)::2X(G4E)G4::huFcSEFL2v131(+) (Fc fusion)
chain: SHLVKCGESHKSFCVNGGECYMVEGSSIPSRYLCKCPNEFTGDRCQEDFMASFGGGGEGGGGEGGGGDKTHTCPPCPAPELLGGPSVFLFPPKPKDTLMISRTPEVTCVVVDVSHEDPEVKFNWYVDGVEVHNAKTKPCEEQYGSTYRCVSVLTVLHQDWLNGKEYKCKVSNKALPAPIEKTISKAKGQPREPQVYTLPPSREKMTKNQVSLTCLVKGFYPSDIAVEWESNGQPENNYKTTPPVLKSDGSFFLYSKLTVDKSRWQQGNVFSCSVMHEALHNHYTQKSLSLSPGKDKTHTCPPCPAPELLGGPSVFLFPPKPKDTLMISRTPEVTCVVVDVSHEDPEVKFNWYVDGVEVHNAKTKPCEEQYGSTYRCVSVLTVLHQDWLNGKEYKCKVSNKALPAPIEKTISKAKGQPREPQVYTLPPSREEMTENQVSLTCLVEGFYPSDIAVEWESNGQPENNYETTPPVLDSDGSFFLYSDLTVDKSRWQQGNVFSCSVMHEALHNHYTQKSLSLSPGK

CM % Agonism AVG [2]: 87.1%
Cardiomyocyte (CM) (ErbB4) Avg EC50 [2]: 2 nM
Selectivity SC/CM [2]: > 10000
B8: :huNRG1(S177-F229)(NRGE1D)::2X(G4A)G4::huFcSEFL2v131(+) (Fc fusion)
chain: B7 chain with E58A, E63A

Schwann cells (SC) (ErbB3) Avg EC50 [1]: > 10000 nM
CM % Agonism AVG [2]: 72%
Cardiomyocyte (CM) (ErbB4) Avg EC50 [2]: 1.84 nM
Selectivity SC/CM [2]: > 5500
B9: huNRG1(S177-Q237)(NRGE1A)::GG::huFcSEFL2 (Pb) (Fc fusion)
chain: SHLVKCAENDKSFCVNGGECFMIEGPSNPSRYLCKCPNEFTGDRCQEDFMASFYKAEELYQGGDKTHTCPPCPAPELLGGPSVFLFPPKPKDTLMISRTPEVTCVVVDVSHEDPEVKFNWYVDGVEVHNAKTKPCEEQYGSTYRCVSVLTVLHQDWLNGKEYKCKVSNKALPAPIEKTISKAKGQPREPQVYTLPPSREEMTKNQVSLTCLVKGFYPSDIAVEWESNGQPENNYKTTPPVLDSDGSFFLYSKLTVDKSRWQQGNVFSCSVMHEALHNHYTQKSLSLSPGK

Further lines, the molecule ahead of its results:

B1: :huFcSEFL2(desK)vl31(+):G4SG4:huNRG1(S177-F229)(NRGE1C) (Fc fusion)
chain: DKTHTCPPCPAPELLGGPSVFLFPPKPKDTLMISRTPEVTCVVVDVSHEDPEVKFNWYVDGVEVHNAKTKPCEEQYGSTYRCVSVLTVLHQDWLNGKEYKCKVSNKALPAPIEKTISKAKGQPREPQVYTLPPSREKMTKNQVSLTCLVKGFYPSDIAVEWESNGQPENNYKTTPPVLKSDGSFFLYSKLTVDKSRWQQGNVFSCSVMHEALHNHYTQKSLSLSPGGGGGSGGGGSHLVKCGEKHKSFCVNGGECFMIEGPSNPSRYLCKCPNEFTGDRCQEDFMASFDKTHTCPPCPAPELLGGPSVFLFPPKPKDTLMISRTPEVTCVVVDVSHEDPEVKFNWYVDGVEVHNAKTKPCEEQYGSTYRCVSVLTVLHQDWLNGKEYKCKVSNKALPAPIEKTISKAKGQPREPQVYTLPPSREEMTENQVSLTCLVEGFYPSDIAVEWESNGQPENNYETTPPVLDSDGSFFLYSDLTVDKSRWQQGNVFSCSVMHEALHNHYTQKSLSLSPGK
CM % Agonism AVG [2]: 62.7%
Cardiomyocyte (CM) (ErbB4) Avg EC50 [2]: 6.4 nM
Selectivity SC/CM [2]: > 10000

B2: :huFcSEFL2(desK)vl31(+):G4SG4:huNRG1(S177-F229)(NRGE1D) (Fc fusion)
chain: B1 chain with K244S, F256Y, I258V, P261S, N263I
CM % Agonism AVG [2]: 72.3%
Cardiomyocyte (CM) (ErbB4) Avg EC50 [2]: 4.3 nM
Selectivity SC/CM [2]: > 10000

B3: :huFcSEFL2(desK)vl31(+):G4SG4:huNRG1(S177-Q237)(NRGE1C) (Fc fusion)
chain: DKTHTCPPCPAPELLGGPSVFLFPPKPKDTLMISRTPEVTCVVVDVSHEDPEVKFNWYVDGVEVHNAKTKPCEEQYGSTYRCVSVLTVLHQDWLNGKEYKCKVSNKALPAPIEKTISKAKGQPREPQVYTLPPSREKMTKNQVSLTCLVKGFYPSDIAVEWESNGQPENNYKTTPPVLKSDGSFFLYSKLTVDKSRWQQGNVFSCSVMHEALHNHYTQKSLSLSPGGGGGSGGGGSHLVKCGEKHKSFCVNGGECFMIEGPSNPSRYLCKCPNEFTGDRCQEDFMASFYKAEELYQDKTHTCPPCPAPELLGGPSVFLFPPKPKDTLMISRTPEVTCVVVDVSHEDPEVKFNWYVDGVEVHNAKTKPCEEQYGSTYRCVSVLTVLHQDWLNGKEYKCKVSNKALPAPIEKTISKAKGQPREPQVYTLPPSREEMTENQVSLTCLVEGFYPSDIAVEWESNGQPENNYETTPPVLDSDGSFFLYSDLTVDKSRWQQGNVFSCSVMHEALHNHYTQKSLSLSPGK
CM % Agonism AVG [2]: 85.4%
Cardiomyocyte (CM) (ErbB4) Avg EC50 [2]: 0.3 nM
Selectivity SC/CM [2]: > 10000

B4: :huFcSEFL2(desK)vl31(+):G4SG4:huNRG1(S177-Q237)(NRGE1D) (Fc fusion)
chain: B3 chain with K244S, F256Y, I258V, P261S, N263I
CM % Agonism AVG [2]: 88.7%
Cardiomyocyte (CM) (ErbB4) Avg EC50 [2]: 0.23 nM
Selectivity SC/CM [2]: > 10000

B5: :huNRG1(S177-F229)(NRGE1C)::2X(G4A)G4::huFcSEFL2v131(+) (Fc fusion)
chain: B7 chain with S9K, Y21F, V23I, S26P, I28N, E58A, E63A
CM % Agonism AVG [2]: 91.6%
Cardiomyocyte (CM) (ErbB4) Avg EC50 [2]: 3.4 nM
Selectivity SC/CM [2]: > 10000

B6: :huNRG1(S177-F229)(NRGE1C)::2X(G4E)G4::huFcSEFL2v131(+) (Fc fusion)
chain: B7 chain with S9K, Y21F, V23I, S26P, I28N
CM % Agonism AVG [2]: 94%
Cardiomyocyte (CM) (ErbB4) Avg EC50 [2]: 2.9 nM
Selectivity SC/CM [2]: > 10000
